From publication PMC12328585 (Nature Communications, 2025)
Positions count from the first letter of the chain named. Names and notes keep the numbering of the source.

B1: γ1ΔC (N-terminal fragment of laminin γ1), human, C-terminally flag-tagged (domain or fragment)
chain: QAAMDECTDEGGRPQRCMPEFVNAAFNVTVVATNTCGTPPEEYCVQTGVTGVTKSCHLCDAGQPHLQHGAAFLTDYNNQADTTWWQSQTMLAGVQYPSSINLTLHLGKAFDITYVRLKFHTSRPESFAIYKRTWEDGPWIPYQYYSGSCENTYSKANRGFIRTGGDEQQALCTDEFSDISPLTGGNVAFSTLEGRPSAYNFDNSPVLQEWVTATDISVTLNRLNTFGDEVFNDPKVLKSYYYAISDFAVGGRCKCNGHASECMKNEFDKLVCNCKHNTYGVDCEKCLPFFNDRPWRRATAESASECLPCDCNGRSQECYFDPELYRSTGHGGHCTNCQDNTDGAHCERCRENFFRLGNNEACSSCHCSPVGSLSTQCDSYGRCSCKPGVMGDKCDRCQPGFHSLTEAGCRPCSCDPSGSIDECNIETGRCVCKDNVEGFNCERCKPGFFNLESSNPRGCTP
modifications: N-glycans at N60 and N134
B2: γ1ΔC D266R (domain or fragment)
chain: QAAMDECTDEGGRPQRCMPEFVNAAFNVTVVATNTCGTPPEEYCVQTGVTGVTKSCHLCDAGQPHLQHGAAFLTDYNNQADTTWWQSQTMLAGVQYPSSINLTLHLGKAFDITYVRLKFHTSRPESFAIYKRTREDGPWIPYQYYSGSCENTYSKANRGFIRTGGDEQQALCTDEFSDISPLTGGNVAFSTLEGRPSAYNFDNSPVLQEWVTATDIRVTLNRLNTFGDEVFNRPKVLKSYYYAISDFAVGGRCKCNGHASECMKNEFDKLVCNCKHNTYGVDCEKCLPFFNDRPWRRATAESASECLP
B3: γ1ΔC R149E (domain or fragment)
chain: B2 chain with R116E, R233D
B4: γ1ΔC Y147R (domain or fragment)
chain: B2 chain with Y114R, R233D
B5: non-tagged Net4ΔC (gift from the Koch lab) (domain or fragment, mouse)
chain: CEKACNPRMGNLALGRKLRADTMCGQNATELFCFYSENADLTCRQPKCDKCNAAHSHLAHPPSAMADSSFRFPRTWWQSAEDVHREKIQLDLEAEFYFTHLIMVFKSPRPAAMVLDRSQDFGKTWKPYKYFATNCSATFGLEDDVVKKGAICTSRYSNPFPCTGGEVIFRALSPPYDIENPYSAKVQEQLKITNLRVRLLKRQSCPCQINDLNAKPHHFMHYAVYDFIVKGSCFCNGHADQCLPVEGFRPIKAPGAFHVVHGRCMCKHNTAGSHCQHCAPLYNDRPWEAADGRTGAPNECRTCKCNGHADTCHFDVNVWEASGNRSGGVCNNCQHNTEGQHCQRCKPGFYRDLRRPFSAPDACKACSCHPVGSAILPFSSVTFCDPSNGDCPCKPGVAGPHCDRCMVGYWGFGDYGCRPCDCAGSCDPLTGDC

Experiments:
Test in all cases: ELISA
[1] = molecular target: non-tagged Net4ΔC (gift from the Koch lab) (mouse) (UniProt Q9JI33)
[2] = molecular target: B5
[3] = molecular target: recombinant mouse laminin 111 (Lm111) (mouse, UniProt P19137 25-3083; P02469 22-1786; P02468 34-1607)

| Molecule | Kd [2] [nM] | other results |
| --- | --- | --- |
| γ1ΔC D285R (from UniProt P11047 37-341) (domain or fragment) | – | Kd [1]: 1.57 nM |
| B1 | 2.93 ± 0.51 | – |
| B2 | 4 ± 0.4 | – |
| B3 | 1.89 ± 0.2 | – |
| B4 | 2.28 ± 0.43 | – |
| B5 | – | Kd [3]: 0.39 ± 0.07 nM |
